Source: patent publication US20220098305A1 (Hoffmann-La Roche, published 2022)
Where two headings read alike, the source gives them in different places.

How the values were obtained:
human ICOS [1] = biological target: T1, human ICOS (human, UniProt Q9Y6W8 21-199); assay: cell-based or functional assay
T1 sequence: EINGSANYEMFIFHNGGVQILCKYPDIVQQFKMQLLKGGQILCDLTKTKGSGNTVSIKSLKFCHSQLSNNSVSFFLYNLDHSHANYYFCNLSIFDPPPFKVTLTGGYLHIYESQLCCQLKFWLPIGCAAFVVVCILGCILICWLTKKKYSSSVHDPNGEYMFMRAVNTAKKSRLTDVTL

human ICOS [2] = biological target: T1, human ICOS; assay: flow cytometry, SR cells
human FAP [3] = biological target: T2, human FAP (human, UniProt Q12884 1-760); assay: flow cytometry, NIH/3T3-huFAP clone 19 cells
T2 construct: also called hu FAP
Experimental: (§1) Briefly, suspension cells were harvested, counted, checked for viability and re-suspended at 1 million cells per ml in FACS buffer (PBS with 0.1% BSA). […] The staining was fixed for 20 min at 4° C. in the dark, using 75 μl of 1% PFA in FACS buffer per well.
(§2) Fluorescence was analyzed by FACS using a FACS Fortessa (Software FACS Diva). Binding curves and EC₅₀ values were obtained using GraphPadPrism 7.

human FAP [4] = biological target: T2, human FAP; assay: flow cytometry, NIH/3T3-huFAP clone 19 cells; remark: listed apart in the source
human ICOS [5] = biological target: T1, human ICOS; assay: flow cytometry, CHO cells expressing human ICOS
human ICOS [6] = biological target: T1, human ICOS; assay: flow cytometry, CHO cells expressing human ICOS; remark: listed apart in the source
Experimental: as §1, §2

cynomolgus ICOS [7] = biological target: T3, cynomolgus ICOS (cynomolgus, UniProt Q9Y6W8 21-195 (human entry)); assay: flow cytometry, activated cynomolgus PBMCs, CD4+ subset
T3 chain: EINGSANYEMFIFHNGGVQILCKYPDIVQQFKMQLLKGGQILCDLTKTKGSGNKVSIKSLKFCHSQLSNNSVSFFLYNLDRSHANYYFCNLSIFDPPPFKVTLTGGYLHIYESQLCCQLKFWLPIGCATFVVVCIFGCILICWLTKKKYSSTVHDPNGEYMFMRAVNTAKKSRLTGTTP
Experimental: as §1
(§3) Briefly, cynomolgus PBMCs were activated for 48 hours using Dynabeads™ Human T-Activator CD3/CD28 (Thermo Fischer #11131D) according to manufacturer instruction and stored in RPMI1640 medium containing 10% FCS and 1% Glutamax (Gibco 35050061) at 37° C., in a humidified incubator until subsequent binding experiment was performed, as described above.

cynomolgus ICOS [8] = biological target: T3, cynomolgus ICOS; assay: flow cytometry, activated cynomolgus PBMCs, CD8+ subset
Experimental: as §1, §3

human FAP [9] = biological target: T2, human FAP; assay: flow cytometry on NIH/3T3-huFAP clone 19 cells, geometric MFI
cynomolgus ICOS [10] = biological target: T3, cynomolgus ICOS; assay: flow cytometry on cynomolgus PBMCs activated 48 h with CD3/CD28 beads, CD4+ subset, MFI
Experimental: as §1, §3

cynomolgus ICOS [11] = biological target: T3, cynomolgus ICOS; assay: flow cytometry on cynomolgus PBMCs activated 48 h with CD3/CD28 beads, CD8+ subset, MFI
Experimental: as §1, §3

human ICOS [12] = biological target: T1, human ICOS; assay: flow cytometry on CHO cells expressing human ICOS, PE-labelled secondary antibody; y axis printed LOG10(MFI PE)
human FAP [13] = biological target: T2, human FAP; assay: flow cytometry, NIH/3T3-huFAP clone 19 cells; remark: listed apart in the source
human ICOS [14] = biological target: T1, human ICOS; assay: flow cytometry on human PBMCs pre-activated 48 h with PHA-L and IL-2, CD4+ subset, MFI
Experimental: as §1
Briefly, Peripheral blood mononuclear cells (PBMCs) were prepared by Histopaque (Sigma-Aldrich, Cat No. 10771-500ML Histopaque-1077) density centrifugation of enriched lymphocyte preparations of heparinized blood obtained from a Buffy Coat (“Blutspende Zürich”). The blood was diluted 1:2 with sterile DPBS and layered over Histopaque gradient (Sigma, #H8889). After centrifugation (450×g, 30 minutes, room temperature), the plasma above the PBMC-containing interphase was discarded and PBMCs transferred in a new falcon tube subsequently filled with 50 ml of PBS. The mixture was centrifuged (400×g, 10 minutes, room temperature), the supernatant discarded and the PBMC pellet washed twice with sterile PBS (centrifugation steps 350×g, 10 minutes). The resulting PBMC population was counted automatically (Cedex HiRes) and stored in RPMI1640 medium containing 10% FCS and 1% Glutamax (Gibco 35050061). […] After incubation the PBMCs were used for a subsequent binding experiment, as described above.

human ICOS [15] = biological target: T1, human ICOS; assay: as above; remark: listed apart in the source

B1: Molecule 15, bispecific 2+1 anti-ICOS (009v1)/anti-FAP (4B9) huIgG1 P329GLALA kih (bispecific antibody)
heavy 1: EVRLDETGGGVVQPGRPMELSCVASGFTFSDYWMNWVRQSPEKGLEWVAQIRNKPYNYETYYSDSVKGRFTISRDDSKSRVYLQMNNLRAEDMGIYYCTWPRLRSSDWHFDVWGAGTTVTVSSASTKGPSVFPLAPSSKSTSGGTAALGCLVKDYFPEPVTVSWNSGALTSGVHTFPAVLQSSGLYSLSSVVTVPSSSLGTQTYICNVNHKPSNTKVDKKVEPKSCDKTHTCPPCPAPEAAGGPSVFLFPPKPKDTLMISRTPEVTCVVVDVSHEDPEVKFNWYVDGVEVHNAKTKPREEQYNSTYRVVSVLTVLHQDWLNGKEYKCKVSNKALGAPIEKTISKAKGQPREPQVCTLPPSRDELTKNQVSLSCAVKGFYPSDIAVEWESNGQPENNYKTTPPVLDSDGSFFLVSKLTVDKSRWQQGNVFSCSVMHEALHNHYTQKSLSLSPGGGGGSGGGGSGGGGSGGGGSEIVLTQSPGTLSLSPGERATLSCRASQSVTSSYLAWYQQKPGQAPRLLINVGSRRATGIPDRFSGSGSGTDFTLTISRLEPEDFAVYYCQQGIMLPPTFGQGTKVEIK
heavy 2: not shown
light: AIQMTQSPSSLSASLGGEVTITCKASQDINKNIAWYQHKPGRGPRLLIWYTSTLQTGIPSRFSGSGSGRDYSFTISNLEPEDFATYYCLQFDNLYTFGSGTKLEIRRTVAAPSVFIFPPSDEQLKSGTASVVCLLNNFYPREAKVQWKVDNALQSGNSQESVTEQDSKDSTYSLSSTLTLSKADYEKHKVYACEVTHQGLSSPVTKSFNRGEC
For B1, the “EC50 of activation of Jurkat-NFAT reporter cell line” value (human ICOS [1]) was 4.44 nM, the “Max (Counts/sec), Jurkat-NFAT reporter cell line” value (human ICOS [1]) was 39700 Counts/sec and the EC50 (human ICOS [2]) was 0.00139 nM. It also gave an EC50 (human FAP [3]) of 2.97 nM, an EC50 (human FAP [4]) of 0.00198 nM and an EC50 (human ICOS [5]) of 0.516 nM. For the same binder, the “Max (Log10(MFI))” value (human ICOS [5]) was 3.06 Log10(MFI), the EC50 (human ICOS [6]) was 1.12 nM and the EC50 (cynomolgus ICOS [7]) was 2.09 nM. For the same binder, the EC50 (cynomolgus ICOS [8]) was 3.5 nM, the “EC50 (read off the curve)” value (human FAP [9]) was ~2 nM and the “EC50 (read off the curve)” value (cynomolgus ICOS [10]) was ~2 nM. The “EC50 (read off the curve)” value (cynomolgus ICOS [11]) was ~3 nM and the “EC50 (read off the curve)” value (human ICOS [12]) was ~0.5 nM.

B2: Molecule 13, bispecific 2+1 anti-ICOS (1167)/anti-FAP (4B9) Crossfab-IgG P329G LALA inverted (bispecific antibody)
heavy 1: EVRLLESGGGLVQPGGSLRLSCAASGFTFNTYAVHWVRQAPGKGLEWVSGIGGSGVRTYYADSVKGRLTISRDNSKNTLYLQMNSLRAEDTAIYFCAKDIYVADFTGYAFDIWGQGTMVTVSSASTKGPSVFPLAPSSKSTSGGTAALGCLVEDYFPEPVTVSWNSGALTSGVHTFPAVLQSSGLYSLSSVVTVPSSSLGTQTYICNVNHKPSNTKVDEKVEPKSCDKTHTCPPCPAPEAAGGPSVFLFPPKPKDTLMISRTPEVTCVVVDVSHEDPEVKFNWYVDGVEVHNAKTKPREEQYNSTYRVVSVLTVLHQDWLNGKEYKCKVSNKALGAPIEKTISKAKGQPREPQVCTLPPSRDELTKNQVSLSCAVKGFYPSDIAVEWESNGQPENNYKTTPPVLDSDGSFFLVSKLTVDKSRWQQGNVFSCSVMHEALHNHYTQKSLSLSP
light 1: DIQMTQSPSSVSASVGDRVTITCRASQGINNFLAWYQQKPGKAPKLLIYDASSLQSGVPSRFAGSGSGTDFTLTISSLQPEDFATYYCQQYNFYPLTFGGGTMVEIKRTVAAPSVFIFPPSDRKLKSGTASVVCLLNNFYPREAKVQWKVDNALQSGNSQESVTEQDSKDSTYSLSSTLTLSKADYEKHKVYACEVTHQGLSSPVTKSFNRGEC
heavy 2: not shown
light 2: EVQLLESGGGLVQPGGSLRLSCAASGFTFSSYAMSWVRQAPGKGLEWVSAIIGSGASTYYADSVKGRFTISRDNSKNTLYLQMNSLRAEDTAVYYCAKGWFGGFNYWGQGTLVTVSSASVAAPSVFIFPPSDEQLKSGTASVVCLLNNFYPREAKVQWKVDNALQSGNSQESVTEQDSKDSTYSLSSTLTLSKADYEKHKVYACEVTHQGLSSPVTKSFNRGEC
For B2, the EC50 (human FAP [13]) was 4.45 nM and the binding result (human ICOS [14]) was “binds”.

B3: Molecule 41, CEA(A5H1EL1D)-ICOS(1167) 1+1 human IgG1 P329GLALA (bispecific antibody)
heavy 1: EIVLTQSPATLSLSPGERATLSCRASSSVTYIHWYQQKPGQAPRSWIYATSNLASGIPARFSGSGSGTDFTLTISSLEPEDFAVYYCQHWSSKPPTFGQGTKLEIKSSASTKGPSVFPLAPSSKSTSGGTAALGCLVKDYFPEPVTVSWNSGALTSGVHTFPAVLQSSGLYSLSSVVTVPSSSLGTQTYICNVNHKPSNTKVDKKVEPKSCDKTHTCPPCPAPEAAGGPSVFLFPPKPKDTLMISRTPEVTCVVVDVSHEDPEVKFNWYVDGVEVHNAKTKPREEQYNSTYRVVSVLTVLHQDWLNGKEYKCKVSNKALGAPIEKTISKAKGQPREPQVCTLPPSRDELTKNQVSLSCAVKGFYPSDIAVEWESNGQPENNYKTTPPVLDSDGSFFLVSKLTVDKSRWQQGNVFSCSVMHEALHNHYTQKSLSLSP
light 1: EVQLLESGGGLVQPGGSLRLSCAASGFTFTDYYMNWVRQAPGKGLEWLGFIGNKANAYTTEYSASVKGRFTISRDKSKNTLYLQMNSLRAEDTATYYCTRDRGLRFYFDYWGQGTTVTVSSASVAAPSVFIFPPSDEQLKSGTASVVCLLNNFYPREAKVQWKVDNALQSGNSQESVTEQDSKDSTYSLSSTLTLSKADYEKHKVYACEVTHQGLSSPVTKSFNRGEC
heavy 2: not shown
light 2: DIQMTQSPSSVSASVGDRVTITCRASQGINNFLAWYQQKPGKAPKLLIYDASSLQSGVPSRFAGSGSGTDFTLTISSLQPEDFATYYCQQYNFYPLTFGGGTMVEIKRTVAAPSVFIFPPSDRKLKSGTASVVCLLNNFYPREAKVQWKVDNALQSGNSQESVTEQDSKDSTYSLSSTLTLSKADYEKHKVYACEVTHQGLSSPVTKSFNRGEC
B3: binds (human ICOS [15]).
